The target in assay [1] is PP2Ac of COS-1 cells (endogenous PP2A catalytic subunit / PP2A activity). Put plainly: 12CA5 immunoprecipitation from transfected COS-1 cells, PP2A activity in the precipitate.
Assay [2] has the same target. Put plainly: 12CA5 immunoprecipitation from transfected COS-1 cells, PP2A activity on 32P-LRRASVA.
Assay [3] addresses 32P-labeled synthetic peptide LRRASVA (Kemptide Val^6, Ala^7) (Artificial Sequence).

Data on 2 substances can be found in patent US6159704.

The substance “HA-tagged human PR65α expressed in COS-1 cells (from UniProt P30153)” came in with a fold PP2A activity against eRF1 immunoprecipitates in assay [1] of 10 fold. In assay [2], this substance registered a % immunoprecipitated (of PP2A activity) of 3.7% and a PP2A activity in immunoprecipitates (mU) of 17 mU.

As for “PP2Ac of COS-1 cells (endogenous PP2A catalytic subunit / PP2A activity) (enzyme)”, the PP2A activity with 32P-labeled synthetic peptide (LRRASVA) as substrate, with and without 10 nM okadaic acid in assay [3] turned out to be 2.4 U/mg.
